Article PMC7846482 (The Journal of Biological Chemistry, 2021)

B1: mouse anti-SARS-CoV-2 spike monoclonal antibody clone S3D8 (antibody, V domains shown)
VH: QVQLQQSGAELVKPGASVKLSCKASGYTFTSYYMYWMKQRPGQGLEWIGEINPSNGGTNFNEKFKSKATLTVDKSSSTAYMQLSSLTSEDSAVYYCTIFITRDAMDYWGQGTSVTVSS
VL: QIVLTQSPAIMSASPGEKVTLTCSASSSVSSSYLFWYQQKPGSSPKLWIYTTSNLASGVPARFSGSGSGTSYSLTISSMEAEDAASYFCHQWSSYPPTFGAGTKLELK
B2: mouse anti-SARS-CoV-2 spike monoclonal antibody clone R31 (antibody, V domains shown)
VH: QVQLQQSGAELVRPGTSVKISCKASYTFTNYWLAWVKQRPGHGLEWIGDIYPGGAYTNFNEKFKGKATLTADTSSSTAYMQLSSLTSEDSAVYFCARDGHYGYAMDYWGQGTSVTVSS
VL: DIVMTQAAFSNPVTLGTSASISCRSSKSLLHSNGITYLYWYLQKPGQSPQLLIYQMSDLASGVPDRFSSSGSGTDFTLRISRVEAEDVGVYYCAQNLELPRTFGGGIKLEIK
B3: mouse anti-SARS-CoV-2 spike monoclonal antibody clone S1D7 (antibody, V domains shown)
VH: QVQLQQSGAELVKPGASVKLSCKASGYTFTSYYIYWMKQRPGQGLEWIGEINPNNGGTNFNEKFKSKATLTVDKSSSTAYMQLSSLTSEDSAVYYCTRGHSDYWGQGTTLTVSS
VL: DIVLTQSPASLAVSLGQRATISCRASESVEYYGTGLMQWYQQKPGQPPKLLIYAASNVESGVPARFSGSGSGTDFSLNIHPVEEDDIAMYFCQQTRKVPYTFGGGTKLEIK
B4: mouse anti-SARS-CoV-2 spike monoclonal antibody clone R22 (antibody, V domains shown)
VH: EVQLQQSGPELVRPGASVKISCKTSGYTFTEYIIHWVKQSHGKSLEWIGGIDPNNGDTSYNQKFKGKASLTVDKSSSTAYMELRSLTSDDSAVYYCARLDFDYWGQGTTLTVSS
VL: DIVMTQSHKFMSTSVGDRVSITCKASQDVRTAVAWYQQKPGQSPKLLIYWASTRYTGVPDRFTGSGSGTDYTLTISSVQAEDLALYYCQQHDSTPLTFGAGTKLELK
B5: mouse anti-SARS-CoV-2 spike monoclonal antibody clone R52 (antibody, V domains shown)
VH: QIQLVQSGPELKKPGETVKISCKASGYTFTNYGMNWVKQAPGNGLRWMGWINTYTREPSYAADFKGRFAFSLETSARAAYLQINNLKNEDTATYFCARNGAMDYWGQGTSVTVSS
VL: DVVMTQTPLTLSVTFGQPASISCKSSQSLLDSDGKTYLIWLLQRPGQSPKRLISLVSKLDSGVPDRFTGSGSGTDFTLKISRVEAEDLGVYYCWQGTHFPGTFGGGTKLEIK
B6: mouse anti-SARS-CoV-2 spike monoclonal antibody clone R15 (antibody, V domains shown)
VH: QIQLVQSGPELKKPGETVKISCKASGYTFTKYGINWVKQAPGKDLKWMGWINTYTGEPAYGDDFKGRFAFSLETSTNTAYLQINNFKNEDTATYFCARNGAMDYWGQGTSVTVSS
VL: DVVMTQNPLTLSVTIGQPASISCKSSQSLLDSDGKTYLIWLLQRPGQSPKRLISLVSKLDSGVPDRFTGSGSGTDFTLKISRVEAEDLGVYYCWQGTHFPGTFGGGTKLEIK

Key:
Conditions in all cases: both partners purified
[1] = target: T1, SARS-CoV-2 spike receptor-binding domain (RBD) glycoprotein from the mammalian expression system (SARS-CoV-2 Wuhan-Hu-1, UniProt P0DTC2); experiment: co-IP
[2] = target: T1, SARS-CoV-2 spike receptor-binding …; experiment: western blotting
[3] = target: T1, SARS-CoV-2 spike receptor-binding …; experiment: ELISA

Binder	binding result [1]	binding result [2]	also measured
B1	binds	–	–
B2	–	binds	–
B3	binds	–	–
B4	–	binds	–
B5	–	binds	–
B6	–	–	binding result [3]: binds
